B1: UNC93B1-GFP, wild type [modified: N-glycosylated at N251 and N272; N-glycosylated at N251 and N272] [not stated] / TLR9-myc (in UNC93B1 KO iBMDMs) [not stated] (parent)
chain 1: MEVEPPLYPVAGAAGPQGDEDRHGVPDGPEAPLDELVGAYPNYNEEEEERRYYRRKRLGVVKNVLAASTGVTLTYGVYLGLLQMQLILHYDETYREVKYGNMGLPDIDSKMLMGINVTPIAALLYTPVLIRFFGTKWMMFLAVGIYALFVSTNYWERYYTLVPSAVALGMAIVPLWASMGNYITRMSQKYYEYSHYKEQDEQGPQQRPPRGSHAPYLLVFQAIFYSFFHLSFACAQLPMIYFLNNYLYDLNHTLINVQSCGTKSQGILNGFNKTVLRTLPRSKNLIVVESVLMAVAFLAMLMVLGLCGAAYRPTEEIDLRSVGWGNIFQLPFKHVRDFRLRHLVPFFIYSGFEVLFACTGFALGYGVCSMGLERLAYLLIAYSLGASASSVLGLLGLWLPRSVPLVAGAGLHLLLTLSLFFWAPAPRVLQHSWIFYFVAALWGVGSALNKTGLSTLLGILYEDKERQDFIFTIYHWWQAVAIFVVYLGSSLPMKAKLAVLLVTLVAAAASYLWMEQKLQQGLVPRQPRIPKPQHKVRGYRYLEEDNSDESDMEGEQGQGDCAEDEAPQAGPLGAEPAGPCRKPCPYEQALGGDGPEEQ
chain 2: LGTLPAFLPCELKPHGLVDCNWLFLKSVPRFSAAASCSNITRLSLISNRIHHLHNSDFVHLSNLRQLNLKWNCPPTGLSPLHFSCHMTIEPRTFLAMRTLEELNLSYNGITTVPRLPSSLVNLSLSHTNILVLDANSLAGLYSLRVLFMDGNCYYKNPCTGAVKVTPGALLGLSNLTHLSLKYNNLTKVPRQLPPSLEYLLVSYNLIVKLGPEDLANLTSLRVLDVGGNCRRCDHAPNPCIECGQKSLHLHPETFHHLSHLEGLVLKDSSLHTLNSSWFQGLVNLSVLDLSENFLYESITHTNAFQNLTRLRKLNLSFNYRKKVSFARLHLASSFKNLVSLQELNMNGIFFRLLNKYTLRWLADLPKLHTLHLQMNFINQAQLSIFGTFRALRFVDLSDNRISGPSTLSEATPEEADDAEQEELLSADPHPAPLSTPASKNFMDRCKNFKFTMDLSRNNLVTIKPEMFVNLSRLQCLSLSHNSIAQAVNGSQFLPLTNLQVLDLSHNKLDLYHWKSFSELPQLQALDLSYNSQPFSMKGIGHNFSFVTHLSMLQSLSLAHNDIHTRVSSHLNSNSVRFLDFSGNGMGRMWDEGGLYLHFFQGLSGLLKLDLSQNNLHILRPQNLDNLPKSLKLLSLRDNYLSFFNWTSLSFLPNLEVLDLAGNQLKALTNGTLPNGTLLQKLDVSSNSIVSVVPAFFALAVELKEVNLSHNILKTVDRSWFGPIVMNLTVLDVRSNPLHCACGAAFVDLLLEVQTKVPGLANGVKCGSPGQLQGRSIFAQDLRLCLDEVLSWDCFGLSLLAVAVGMVVPILHHLCGWDVWYCFHLCLAWLPLLARSRRSAQTLPYDAFVVFDKAQSAVADWVYNELRVRLEERRGRRALRLCLEDRDWLPGQTLFENLWASIYGSRKTLFVLAHTDRVSGLLRTSFLLAQQRLLEDRKDVVVLVILRPDAHRSRYVRLRQRLCRQSVLFWPQQPNGQGGFWAQLSTALTRDNRHFYNQNFCRGPTAE

Variants of: B1
Assay: co-immunoprecipitation from isolated phagosomes, band densitometry
Conditions: with TLR9-myc (in UNC93B1 KO iBMDMs), means ± SD of two independent experiments, parent: 1, read off a plot

Variant	ratio to parent
chain 1 MEVEPPLYPVAGAAGPQGDEDRHGVPDGPEAPLDELVGAYPNYNEEEEERRYYRRKRLGVVKNVLAASTGVTLTYGVYLGLLQMQLILHYDETYREVKYGNMGLPDIDSKMLMGINVTPIAALLYTPVLIRFFGTKWMMFLAVGIYALFVSTNYWERYYTLVPSAVALGMAIVPLWASMGNYITRMSQKYYEYSHYKEQDEQGPQQRPPRGSHAPYLLVFQAIFYSFFHLSFACAQLPMIYFLNNYLYDLQHTLINVQSCGTKSQGILNGFNKTVLRTLPRSKNLIVVESVLMAVAFLAMLMVLGLCGAAYRPTEEIDLRSVGWGNIFQLPFKHVRDFRLRHLVPFFIYSGFEVLFACTGFALGYGVCSMGLERLAYLLIAYSLGASASSVLGLLGLWLPRSVPLVAGAGLHLLLTLSLFFWAPAPRVLQHSWIFYFVAALWGVGSALNKTGLSTLLGILYEDKERQDFIFTIYHWWQAVAIFVVYLGSSLPMKAKLAVLLVTLVAAAASYLWMEQKLQQGLVPRQPRIPKPQHKVRGYRYLEEDNSDESDMEGEQGQGDCAEDEAPQAGPLGAEPAGPCRKPCPYEQALGGDGPEEQ [chain 1 N251Q]	1.3 A.U
chain 1 MEVEPPLYPVAGAAGPQGDEDRHGVPDGPEAPLDELVGAYPNYNEEEEERRYYRRKRLGVVKNVLAASTGVTLTYGVYLGLLQMQLILHYDETYREVKYGNMGLPDIDSKMLMGINVTPIAALLYTPVLIRFFGTKWMMFLAVGIYALFVSTNYWERYYTLVPSAVALGMAIVPLWASMGNYITRMSQKYYEYSHYKEQDEQGPQQRPPRGSHAPYLLVFQAIFYSFFHLSFACAQLPMIYFLNNYLYDLNHTLINVQSCGTKSQGILNGFQKTVLRTLPRSKNLIVVESVLMAVAFLAMLMVLGLCGAAYRPTEEIDLRSVGWGNIFQLPFKHVRDFRLRHLVPFFIYSGFEVLFACTGFALGYGVCSMGLERLAYLLIAYSLGASASSVLGLLGLWLPRSVPLVAGAGLHLLLTLSLFFWAPAPRVLQHSWIFYFVAALWGVGSALNKTGLSTLLGILYEDKERQDFIFTIYHWWQAVAIFVVYLGSSLPMKAKLAVLLVTLVAAAASYLWMEQKLQQGLVPRQPRIPKPQHKVRGYRYLEEDNSDESDMEGEQGQGDCAEDEAPQAGPLGAEPAGPCRKPCPYEQALGGDGPEEQ [chain 1 N272Q]	1.1 A.U
